Reference: IntAct's records for PubMed 20562859

How the values were obtained:
rn123_human RNF123 = biological target: T1, rn123_human RNF123 (UniProt Q5XPI4)
T1 sequence: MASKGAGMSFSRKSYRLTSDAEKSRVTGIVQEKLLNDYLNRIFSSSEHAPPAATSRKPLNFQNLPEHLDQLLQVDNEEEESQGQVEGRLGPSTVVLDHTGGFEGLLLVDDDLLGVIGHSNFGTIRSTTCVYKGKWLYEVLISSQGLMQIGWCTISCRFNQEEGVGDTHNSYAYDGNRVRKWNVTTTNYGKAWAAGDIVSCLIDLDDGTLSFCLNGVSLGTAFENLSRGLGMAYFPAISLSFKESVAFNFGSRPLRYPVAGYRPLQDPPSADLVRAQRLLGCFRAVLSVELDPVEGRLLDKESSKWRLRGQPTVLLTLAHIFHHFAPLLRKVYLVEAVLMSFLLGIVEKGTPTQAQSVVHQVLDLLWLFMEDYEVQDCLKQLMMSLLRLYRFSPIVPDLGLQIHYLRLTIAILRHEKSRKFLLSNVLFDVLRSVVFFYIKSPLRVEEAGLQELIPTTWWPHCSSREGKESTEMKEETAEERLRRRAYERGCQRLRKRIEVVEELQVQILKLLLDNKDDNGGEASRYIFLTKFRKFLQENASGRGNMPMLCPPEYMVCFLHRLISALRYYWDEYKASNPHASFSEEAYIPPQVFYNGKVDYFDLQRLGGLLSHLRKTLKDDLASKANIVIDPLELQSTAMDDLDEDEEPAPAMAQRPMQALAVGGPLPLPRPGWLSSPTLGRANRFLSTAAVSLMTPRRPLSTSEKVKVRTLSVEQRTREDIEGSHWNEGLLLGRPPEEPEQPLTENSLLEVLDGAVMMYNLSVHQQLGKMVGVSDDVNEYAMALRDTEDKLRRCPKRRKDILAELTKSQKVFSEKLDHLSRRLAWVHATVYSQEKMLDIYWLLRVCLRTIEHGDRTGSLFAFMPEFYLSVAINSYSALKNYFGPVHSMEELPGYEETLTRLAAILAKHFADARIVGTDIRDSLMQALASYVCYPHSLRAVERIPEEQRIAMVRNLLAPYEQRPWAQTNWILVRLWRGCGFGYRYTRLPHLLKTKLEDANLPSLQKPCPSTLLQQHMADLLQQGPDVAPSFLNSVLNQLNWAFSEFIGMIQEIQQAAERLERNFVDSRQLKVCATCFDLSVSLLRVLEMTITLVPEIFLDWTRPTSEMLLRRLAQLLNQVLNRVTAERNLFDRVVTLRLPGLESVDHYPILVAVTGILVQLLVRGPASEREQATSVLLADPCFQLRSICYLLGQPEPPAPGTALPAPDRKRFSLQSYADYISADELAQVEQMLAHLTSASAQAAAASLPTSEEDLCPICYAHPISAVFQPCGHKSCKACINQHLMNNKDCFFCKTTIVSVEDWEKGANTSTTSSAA

nips2_human NIPSNAP2 = biological target: T2, nips2_human NIPSNAP2 (UniProt O75323)
T2 sequence: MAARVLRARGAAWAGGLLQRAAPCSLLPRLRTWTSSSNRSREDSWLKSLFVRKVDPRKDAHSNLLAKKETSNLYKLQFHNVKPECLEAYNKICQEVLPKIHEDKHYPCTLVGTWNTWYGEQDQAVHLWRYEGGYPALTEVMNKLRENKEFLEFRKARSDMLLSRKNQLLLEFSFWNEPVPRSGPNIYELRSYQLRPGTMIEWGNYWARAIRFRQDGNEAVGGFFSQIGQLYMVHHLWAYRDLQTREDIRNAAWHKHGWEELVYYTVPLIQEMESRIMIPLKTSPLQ

kbtb6_human KBTBD6 = biological target: T3, kbtb6_human KBTBD6 (UniProt Q86V97)
T3 sequence: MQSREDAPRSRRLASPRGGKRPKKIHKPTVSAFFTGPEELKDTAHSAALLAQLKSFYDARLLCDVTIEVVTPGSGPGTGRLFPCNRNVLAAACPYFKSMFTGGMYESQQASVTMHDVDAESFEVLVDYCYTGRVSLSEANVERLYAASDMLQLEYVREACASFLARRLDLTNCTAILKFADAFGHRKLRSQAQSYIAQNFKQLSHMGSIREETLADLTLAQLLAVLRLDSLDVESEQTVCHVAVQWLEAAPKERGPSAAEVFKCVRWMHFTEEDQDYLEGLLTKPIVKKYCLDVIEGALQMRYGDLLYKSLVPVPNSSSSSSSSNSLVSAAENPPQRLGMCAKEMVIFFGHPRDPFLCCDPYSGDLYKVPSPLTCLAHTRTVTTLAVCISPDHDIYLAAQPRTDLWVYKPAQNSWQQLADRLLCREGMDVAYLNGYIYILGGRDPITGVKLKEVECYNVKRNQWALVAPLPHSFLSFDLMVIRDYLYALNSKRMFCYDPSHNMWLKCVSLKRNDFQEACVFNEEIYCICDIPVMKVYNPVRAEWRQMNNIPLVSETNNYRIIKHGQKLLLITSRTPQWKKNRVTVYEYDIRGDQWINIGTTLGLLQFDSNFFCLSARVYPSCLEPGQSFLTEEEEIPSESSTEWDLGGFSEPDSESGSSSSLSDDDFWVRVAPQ

atg2a_human ATG2A = atg2a_human ATG2A (UniProt Q2TAZ0)
nedd4_human NEDD4 = nedd4_human NEDD4 (UniProt P46934)
rasf3_human RASSF3 = biological target: T4, rasf3_human RASSF3 (UniProt Q86WH2)
T4 sequence: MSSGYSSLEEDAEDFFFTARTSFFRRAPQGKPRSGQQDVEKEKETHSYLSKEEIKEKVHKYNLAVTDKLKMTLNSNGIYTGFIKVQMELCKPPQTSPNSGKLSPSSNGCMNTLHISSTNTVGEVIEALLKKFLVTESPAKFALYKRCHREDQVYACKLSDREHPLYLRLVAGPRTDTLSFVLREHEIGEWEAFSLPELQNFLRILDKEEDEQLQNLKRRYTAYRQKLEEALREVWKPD

Chain of atg2a_human ATG2A (Q2TAZ0 whole entry): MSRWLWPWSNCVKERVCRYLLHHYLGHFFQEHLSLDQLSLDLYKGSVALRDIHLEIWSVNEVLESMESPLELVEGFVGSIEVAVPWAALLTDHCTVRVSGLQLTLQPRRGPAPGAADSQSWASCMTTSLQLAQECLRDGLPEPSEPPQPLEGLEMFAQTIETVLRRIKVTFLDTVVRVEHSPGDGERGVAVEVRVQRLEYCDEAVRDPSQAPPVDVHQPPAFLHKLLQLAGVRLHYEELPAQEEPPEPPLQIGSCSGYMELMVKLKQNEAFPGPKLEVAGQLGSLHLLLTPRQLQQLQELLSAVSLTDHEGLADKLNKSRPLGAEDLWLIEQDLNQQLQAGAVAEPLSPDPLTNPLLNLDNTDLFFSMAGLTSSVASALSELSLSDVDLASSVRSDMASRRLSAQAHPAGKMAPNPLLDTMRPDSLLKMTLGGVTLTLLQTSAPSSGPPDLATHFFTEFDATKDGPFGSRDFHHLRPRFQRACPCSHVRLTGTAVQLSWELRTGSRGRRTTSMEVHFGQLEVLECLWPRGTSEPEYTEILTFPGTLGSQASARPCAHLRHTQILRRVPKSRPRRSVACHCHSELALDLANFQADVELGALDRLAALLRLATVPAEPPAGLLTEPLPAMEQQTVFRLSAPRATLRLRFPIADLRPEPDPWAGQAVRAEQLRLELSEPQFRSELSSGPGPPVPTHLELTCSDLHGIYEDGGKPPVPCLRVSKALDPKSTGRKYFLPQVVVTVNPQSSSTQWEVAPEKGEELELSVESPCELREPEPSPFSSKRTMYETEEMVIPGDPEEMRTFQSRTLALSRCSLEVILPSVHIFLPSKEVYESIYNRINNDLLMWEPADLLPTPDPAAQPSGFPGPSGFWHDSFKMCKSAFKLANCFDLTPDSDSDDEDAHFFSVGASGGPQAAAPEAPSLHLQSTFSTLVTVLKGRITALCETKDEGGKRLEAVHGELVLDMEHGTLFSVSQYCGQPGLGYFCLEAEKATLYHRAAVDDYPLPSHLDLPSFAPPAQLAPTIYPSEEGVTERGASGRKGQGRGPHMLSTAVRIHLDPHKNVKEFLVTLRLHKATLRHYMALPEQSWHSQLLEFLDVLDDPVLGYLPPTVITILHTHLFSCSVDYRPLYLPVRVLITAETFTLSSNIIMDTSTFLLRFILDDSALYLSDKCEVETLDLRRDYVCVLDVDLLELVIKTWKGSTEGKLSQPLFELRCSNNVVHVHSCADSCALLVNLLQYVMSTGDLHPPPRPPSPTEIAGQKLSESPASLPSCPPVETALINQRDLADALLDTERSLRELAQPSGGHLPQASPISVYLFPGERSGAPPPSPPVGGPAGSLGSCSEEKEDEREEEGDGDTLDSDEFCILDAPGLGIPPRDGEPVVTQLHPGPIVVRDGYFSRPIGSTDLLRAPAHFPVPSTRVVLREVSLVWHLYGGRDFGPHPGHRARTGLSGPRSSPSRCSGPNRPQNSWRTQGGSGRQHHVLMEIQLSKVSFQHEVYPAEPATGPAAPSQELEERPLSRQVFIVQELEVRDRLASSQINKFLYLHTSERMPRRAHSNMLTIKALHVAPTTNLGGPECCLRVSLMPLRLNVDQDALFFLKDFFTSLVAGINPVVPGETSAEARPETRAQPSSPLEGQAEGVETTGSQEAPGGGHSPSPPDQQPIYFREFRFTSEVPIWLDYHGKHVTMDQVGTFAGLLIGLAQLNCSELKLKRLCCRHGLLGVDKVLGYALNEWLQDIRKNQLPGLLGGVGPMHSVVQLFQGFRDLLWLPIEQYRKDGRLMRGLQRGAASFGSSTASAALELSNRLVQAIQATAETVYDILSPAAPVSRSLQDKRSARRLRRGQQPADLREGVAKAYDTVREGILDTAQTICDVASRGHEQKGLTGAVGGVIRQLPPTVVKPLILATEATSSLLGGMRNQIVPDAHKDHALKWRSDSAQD
Chain of nedd4_human NEDD4 (P46934 whole entry): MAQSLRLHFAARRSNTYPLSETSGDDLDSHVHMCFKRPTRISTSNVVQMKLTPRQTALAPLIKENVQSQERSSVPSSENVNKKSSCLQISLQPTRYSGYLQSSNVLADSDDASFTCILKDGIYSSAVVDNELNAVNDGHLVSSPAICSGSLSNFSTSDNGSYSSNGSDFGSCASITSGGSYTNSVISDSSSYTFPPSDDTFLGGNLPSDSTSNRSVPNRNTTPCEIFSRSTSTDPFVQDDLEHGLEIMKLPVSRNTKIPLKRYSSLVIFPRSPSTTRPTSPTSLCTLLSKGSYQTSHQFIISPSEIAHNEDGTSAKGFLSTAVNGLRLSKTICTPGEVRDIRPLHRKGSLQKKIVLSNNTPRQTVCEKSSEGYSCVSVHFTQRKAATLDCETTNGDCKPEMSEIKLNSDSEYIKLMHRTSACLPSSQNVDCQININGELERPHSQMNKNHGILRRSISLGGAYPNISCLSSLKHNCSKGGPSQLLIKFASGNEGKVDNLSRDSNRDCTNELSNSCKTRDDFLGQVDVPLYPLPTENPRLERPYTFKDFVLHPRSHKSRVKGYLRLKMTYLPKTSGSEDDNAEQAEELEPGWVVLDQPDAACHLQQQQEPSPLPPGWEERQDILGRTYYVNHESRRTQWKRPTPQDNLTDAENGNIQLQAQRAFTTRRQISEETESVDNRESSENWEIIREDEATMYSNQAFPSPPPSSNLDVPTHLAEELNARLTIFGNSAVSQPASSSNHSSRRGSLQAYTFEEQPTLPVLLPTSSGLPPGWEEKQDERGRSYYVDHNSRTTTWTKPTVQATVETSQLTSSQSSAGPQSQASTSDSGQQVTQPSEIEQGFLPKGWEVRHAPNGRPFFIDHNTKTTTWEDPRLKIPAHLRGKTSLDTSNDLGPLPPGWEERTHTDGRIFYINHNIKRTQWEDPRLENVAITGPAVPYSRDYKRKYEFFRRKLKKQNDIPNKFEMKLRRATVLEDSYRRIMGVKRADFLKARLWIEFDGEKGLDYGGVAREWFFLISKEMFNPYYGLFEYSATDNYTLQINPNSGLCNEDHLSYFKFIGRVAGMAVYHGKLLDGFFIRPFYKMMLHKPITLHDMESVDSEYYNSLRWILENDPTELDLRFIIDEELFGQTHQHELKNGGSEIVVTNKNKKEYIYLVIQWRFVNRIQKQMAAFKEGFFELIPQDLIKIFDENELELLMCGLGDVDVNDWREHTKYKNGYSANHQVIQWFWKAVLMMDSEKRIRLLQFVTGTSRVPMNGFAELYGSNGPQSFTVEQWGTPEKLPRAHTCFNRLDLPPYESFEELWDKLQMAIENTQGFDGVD

| Substance | effect of a mutation on the interaction (rn123_human RNF123) | effect of a mutation on the interaction (nips2_human NIPSNAP2) | effect of a mutation on the interaction (kbtb6_human KBTBD6) | effect of a mutation on the interaction (atg2a_human ATG2A) | effect of a mutation on the interaction (nedd4_human NEDD4) | effect of a mutation on the interaction (rasf3_human RASSF3) |
| --- | --- | --- | --- | --- | --- | --- |
| Microtubule-associated protein 1 light chain 3 beta (Homo sapiens) (from UniProt Q9GZQ8) F52A;L53A | increasing interaction | increasing interaction | decreasing interaction | increasing interaction | decreasing interaction | increasing interaction |
| Microtubule-associated protein 1 light chain 3 beta (Homo sapiens) (from UniProt Q9GZQ8) R69A | decreasing interaction | decreasing interaction | disrupting interaction | decreasing interaction | decreasing interaction | decreasing interaction |
